B1: GST-Nogo: GST fusion protein of the 66 amino acid lumenal-extracellular fragment of Nogo-A, expressed in E. coli (protein)
chain: RIYKGVIQAIQKSDEGHPFRAYLESEVAISEELVQKYSNSALGHVNCTIKELRRLFLVDDLVDSLK
modifications: also: GST fusion protein
notes: GST fusion protein of the 66 amino acid lumenal-extracellular fragment of Nogo-A, expressed in E. coli

Legend:
[1] = test system: chick dorsal root ganglion neurons; assay: Neurite outgrowth assay in chick DRG neurons; assay type: cell-based
Description: (§1) For all experiments involving cell culture, the following methods were employed. The culture of embryonic chick E10 and E12 dorsal root ganglion explants and dissociated neurons utilized methods described for E7 dorsal root ganglion cultures (Takahashi et al., (1998) Nature Neurosci. 1, 487-493; Takahashi et al., (1999) Cell 99, 59-69; Goshima et al., (1995) Nature 376, 509-514; Jin & Strittmatter, (1997) J. Neurosci. […]). NGF-differentiated PC12 cells were cultured as described (Strittmatter et al., (1994) J. Neurosci. 14, 2327-2338). Embryonic spinal cord explants (rat E10 or chick E5) were cultured for 7-14 days in the presence of PDGF-AA to induce differentiation of some cells into mature oligodendrocytes (Vartanian et al., (1999) Proc. Natl. Acad. Sci. USA 96, 731-735). The procedure for growth cone collapse assays is identical to that for analysis of Sema3A-induced growth cone collapse (Takahashi et al., (1998) Nature Neurosci. 1, 487-493; Takahashi et al., (1999) Cell 99, 59-69; Goshima et al., (1995) Nature 376, 509-514; Jin & Strittmatter, (1997) J. Neurosci. 17, 6256-6263). The method for analysis of total neurite outgrowth has also been described (Goshima et al., (1995) Nature 376, 509-514; Jin & Strittmatter, (1997) J. Neurosci. 17, 6256-6263; Strittmatter et al., (1994) J. Neurosci. 14, 2327-2338). In outgrowth assays, proteins and peptides were added one hour after plating to minimize any effect on the total number of adherent cells. To test the effect of substrate-bound GST or GST-Nogo, the protein solutions were dried on poly-L-lysine coated glass, washed and then coated with laminin. For E12 cultures, the neuronal identity of cells was verified by staining with anti-neurofilament antibodies (2H3, Develomental Studies Hybridoma Bank) and neurites were traced by observation of rhodamine-phalloidin staining of F-actin in processes.
For neurite outgrowth assays, plastic chamber slides were coated with 100 μg ml^−1 poly-L-lysine, washed, and dried. 3 μl drops of PBS containing GST-Nogo-66 were spotted and dried. Slides were then rinsed and coated with 10 μg ml fs24^−1 laminin before addition of dissociated E12 chick DRGs. AP-fusion proteins were added at the time of cell plating. Cultures were grown for 5-7 h after which neurite outgrowth was assessed.

[2] = test system: TPA-induced growth cone collapse; assay: TPA-induced growth cone collapse in E12 chick DRG explants; assay type: cell-based
Description: For further testing, a synthetic peptide containing amino acid residues #1055-1094 of hNgR, acetylated at the […] was used [hereinafter “Peptide 140”]. […] Antagonist of Nogo-66 inhibitory activity may act by competing for, and thereby blocking NgR binding sites. To determine the antagonistic activity of Peptide 140, the above synthetic form of the peptide was added to E12 chick DRG explant cultures approximately 10 min before application of various concentrations of GST-NogoA (residues #1055-1120), TPA or Sema3A. 30 min later, cultures were fixed and growth cone collapse was assessed following staining with rhodamine-phalloidin.

3T3 fibroblasts = assay: 3T3 fibroblast spreading; assay type: cell-based, mouse; settings: substrate-bound / coated surfaces
Description: (a) is a schematic diagram which summarizes features of the Nogo proteins utilized in this study. (b) is a photograph of NIH-3T3 fibroblasts cultured on surfaces coated with Amino-Nogo, GST-Nogo-66 or no protein and stained for filamentous actin (scale bar, 40 μm). (c) is a photograph of chick E12 dorsal root ganglions cultured on surfaces coated with Amino-Nogo, GST-Nogo-66 or no protein (substrate-bound) or with 100 nM Nogo protein (soluble) (scale bar, 40 μm). (d) is a photograph of a gel and an immunoblot where purified Amino-Nogo-Myc-His protein was subjected to SDS-PAGE and stained with Commassie Brilliant Blue (CBB) or immunoblotted with anti-Myc antibodies (Myc) (molecular weight markers of 200, 116, 97, 65 & 45 kDa are at left). (e) is a graph displaying experimental data where the percentage of 3T3 fibroblasts with an area greater than 1200 μm^2 (spread) was measured from experiments as in (b) on Nogo-coated surfaces (black) or with soluble 100 nM Nogo preparations (blue) (AM, Amino-Nogo; AM+Myc, Amino-Nogo preincubated with anti-Myc antibody; AM+Myc+Mo, AM+Myc preincubated with anti-mouse IgG antibody; Myc+Mo, anti-Myc antibody plus anti-murine IgG antibody). (f) is a graph displaying experimental data where the percentage of spread COS-7 cells was determined after culture on Nogo-coated surfaces or with soluble 100 nM Nogo preparations. (g) is a graph displaying experimental data where the effects of purified preparations of GST-Nogo-66 or Amino-Nogo on growth cone morphology was assessed in E12 dorsal root ganglion cultures at the indicated concentrations after thirty minutes. […] (h) is a graph displaying experimental data where the neurite outgrowth per cell in […] dorsal root ganglion cultures was quantitated from experiments as in (c) on Nogo-coated surfaces or with soluble 100 nM Nogo preparations. (i) is a graph displaying experimental data where the effects of Nogo preparations on neurite outgrowth in cerebellar granule neurons was measured.
Assays of Nogo-A function have included growth cone collapse, neurite outgrowth, and fibroblast spreading with substrate-bound and soluble protein preparations (Caroni & Schwab, (1988) J. Cell Biol. 106, 1281-1288; GrandPré et al., (2000) Nature 403, 439-444; Chen et al., (2000) Nature 403, 434-439; Prinjha et al., (2000) Nature 403, 483-484). […] Since NI250 preparations and full length Nogo-A are non-permissive for 3T3 spreading, it was necessary to consider whether different domains of Nogo might subserve this in vitro activity. To facilitate a comparison of different Nogo-A domains, the acidic amino terminal 1040 amino acid fragment (Amino-Nogo) was expressed as a Myc-his tagged protein in HEK293T cells (FIG. 1d). The Nogo protein is present in cytosolic fractions. […]

[3] = test system: NGF-differentiated PC12 cells; assay: Axon outgrowth from NGF-differentiated PC12 cells; assay type: cell-based
Description: as §1, with “In outgrowth assays, proteins and peptides were added one hour after plating to minimize any effect on the total number of adherent cells. To test the effect of substrate-bound GST or GST-Nogo, the protein solutions were dried on poly-L-lysine coated glass, washed and then coated with laminin. For E12 cultures, the neuronal identity of cells was verified by staining with anti-neurofilament antibodies (2H3, Develomental Studies Hybridoma Bank) and neurites were traced by observation of rhodamine-phalloidin staining of F-actin in processes.” left out

[4] = soluble protein or peptide added to culture

| Molecule | neurite/axon outgrowth (in words) [1, 4] | effect on TPA-induced growth cone collapse (in words) [2] | 3T3 fibroblast spreading (in words) (3T3 fibroblasts) | neurite/axon outgrowth (in words) ([1]; soluble protein or peptide added to culture, listed as Nogo-66) | neurite/axon outgrowth (in words) ([1]; substrate-bound / coated surfaces) | neurite/axon outgrowth (in words) ([1]; substrate-bound / coated surfaces, listed as GST-hNogoA (residues #1055-1120)) | axonal outgrowth (in words) ([3]; bound to substrate surfaces) | axon outgrowth (in words) ([3]; soluble, nM concentrations) |
| --- | --- | --- | --- | --- | --- | --- | --- | --- |
| Peptide 140: synthetic peptide of amino acids #1055-1094 of the human NogoA protein, acetylated and amidated at the termini (Ac-RIYKGVIQAIQKSDEGHPFRAYLESEVAISEELVQKYSNS-NH2; UniProt Q9NQC3 1055-1094, looked up, fragment) | no observable effect on neurite outgrowth | no significant reduction in collapse |  |  |  |  |  |  |
| B1 | blocked |  | does not inhibit spreading | nearly abolishes axonal extension | reduced to undetectable levels | dramatically reduces growth | reduced to undetectable levels | blocked |

From patent US8394929B2, “Nogo receptor-mediated blockade of axonal growth” (Yale University, priority 2000, dated 2013)
